Reference: patent US20120121581A1 (XOMA TECHNOLOGY, published 2012)

B1: ABT02 (antibody, V domains shown)
VH: QVQLVQSGGGVVHPGRSLKLSCAGSGFTFSDYDMHWVRQAPGKGLEWVAVMWFDGTEKYSAESVKGRFTISRDNSKNTLFLQMNSLRADDTAVYYCAREPDWLLWGDRGALDVWGQGTTVTVSS
VL: DIVMTQSPSTLSASVGDRVTITCWASQSISSRLAWYQQKPGKAPKLLMYEATSLGSGVPSRFSGSGSGTEFTLTISSLQPDDFAAYYCQHYDTYPYTFGQGTKLEIK
B2: ABT01 (antibody, V domains shown)
VH: QVQLQQSGGGLVQPGGSLRLSCAASGFTFKYDYMYWIRQAPGKGLEWVATISDGGSYTYYSDSVEGRFTTSRDNSKNTLYLQMNSLRAEDTAIYYCSRYRYDDAMDYWGQGTLVTVSS
VL: EIVLTQSPATLSLSPGERATISCRASESVDSYGHSFMQWYQQKPGQAPRLLIYRASNLEPGIPARFSGSGSGTDFTLTISSLEPEDFAVYYCQQGNEVPFTFGQGTKVEIK
B3: ABT03 (antibody, V domains shown)
VH: QVQLQQSGGGLVQPGGSLRLSCAASGFTFSNYAMTWVRQAPGKGLEWVSSISVGGSDTYYADSVKGRFTVSRDNSKNTLLLQMNSLRAEDTAVYYCAKVRTKYCSSLSCFAGFDSWGQGTRVTVSS
VL: DVVMTQSPSSLSASVGDRVTITCRASQSISSYLHWYQQKPGKAPTLLISDASSSQSGVPSRFSGSRFGTDFTLTISSLQPEDFATYYCQQSYSTRALTFGGGTKVEIK

What was measured:
Experiment in all cases: ELISA, toxin domain coated on plate
[1] = target: BoNT/A light-chain heavy-chain N-terminus (LCHN) domain (UniProt P0DPI0 1-870)
BoNT/A light-chain heavy-chain N-terminus (LCHN) domain, sequence (P0DPI0 1-870 limits assumed): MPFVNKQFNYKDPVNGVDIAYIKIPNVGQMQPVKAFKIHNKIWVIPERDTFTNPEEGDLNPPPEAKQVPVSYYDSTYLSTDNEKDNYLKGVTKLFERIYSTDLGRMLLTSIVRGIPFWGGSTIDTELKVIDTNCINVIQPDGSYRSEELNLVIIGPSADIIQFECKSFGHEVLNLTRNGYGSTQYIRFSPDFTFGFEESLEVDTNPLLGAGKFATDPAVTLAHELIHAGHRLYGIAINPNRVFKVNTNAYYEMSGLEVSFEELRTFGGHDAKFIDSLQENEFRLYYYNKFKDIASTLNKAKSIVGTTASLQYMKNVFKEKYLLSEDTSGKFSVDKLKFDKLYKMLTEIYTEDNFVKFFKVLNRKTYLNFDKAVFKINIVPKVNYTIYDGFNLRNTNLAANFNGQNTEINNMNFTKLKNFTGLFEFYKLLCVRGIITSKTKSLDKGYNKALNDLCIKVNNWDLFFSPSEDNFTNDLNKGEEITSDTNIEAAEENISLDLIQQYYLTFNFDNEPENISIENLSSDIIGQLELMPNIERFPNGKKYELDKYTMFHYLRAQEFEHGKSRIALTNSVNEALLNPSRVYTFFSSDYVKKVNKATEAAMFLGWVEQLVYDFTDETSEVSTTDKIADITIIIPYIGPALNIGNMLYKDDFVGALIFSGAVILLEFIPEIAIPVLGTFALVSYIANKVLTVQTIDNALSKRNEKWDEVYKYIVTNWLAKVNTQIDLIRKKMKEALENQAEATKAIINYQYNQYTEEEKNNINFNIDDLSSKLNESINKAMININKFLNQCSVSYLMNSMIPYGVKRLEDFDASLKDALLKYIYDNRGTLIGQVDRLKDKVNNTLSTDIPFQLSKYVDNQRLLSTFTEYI

[2] = target: BoNT/A heavy-chain N-terminus (HCN) domain (UniProt P0DPI0 871-1092)
BoNT/A heavy-chain N-terminus (HCN) domain, sequence (P0DPI0 871-1092 limits assumed): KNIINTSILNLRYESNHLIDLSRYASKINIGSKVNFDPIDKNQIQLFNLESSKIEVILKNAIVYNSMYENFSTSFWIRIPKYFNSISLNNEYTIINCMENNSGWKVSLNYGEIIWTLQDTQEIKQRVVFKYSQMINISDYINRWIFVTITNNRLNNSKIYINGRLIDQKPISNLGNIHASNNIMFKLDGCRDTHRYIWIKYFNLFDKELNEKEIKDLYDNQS

[3] = target: BoNT/A heavy-chain C-terminus (HCC) domain (UniProt P0DPI0 1093-1296)
BoNT/A heavy-chain C-terminus (HCC) domain, sequence (P0DPI0 1093-1296 limits assumed): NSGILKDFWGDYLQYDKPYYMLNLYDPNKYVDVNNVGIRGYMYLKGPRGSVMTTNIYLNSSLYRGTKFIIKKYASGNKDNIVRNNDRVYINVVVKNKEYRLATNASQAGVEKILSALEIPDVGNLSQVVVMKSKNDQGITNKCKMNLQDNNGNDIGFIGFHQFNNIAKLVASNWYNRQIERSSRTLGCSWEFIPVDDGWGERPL

Binder	binding result [1]	binding result [2]	binding result [3]
B1	no binding	no binding	
B2	no binding		no binding
B3		no binding	no binding
